Data from the supplement of paper PMC9170038.

Tested on: MS2 coat protein
Assay: apparent KD of MS2 coat protein; designed switch direction (-1 OFF switch, 1 ON switch): 1; higher = weaker reporter binding
Method in brief: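 For each design, the apparent KD is the median over clusters of curves fitted to normalised cluster fluorescence. Clusters held RNA switches with common flanks, transcribed on Illumina chips by stalled E. coli RNA polymerase. These were titrated with SNAP-549-labelled MS2 coat protein, doubling from 0.7 or 1.5 nM to 3 µM, without input, with 200 uM small-molecule ligand, or with an oligonucleotide input.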

[1] = Eterna round: R95, input ligand: FMN 200 uM
[2] = Eterna round: R95, input ligand: microRNA oligo, concentration not stated
[3] = Eterna round: R95, input ligand: none
[4] = input ligand: microRNA oligo, concentration not stated

Row | Sequence | apparent KD of MS2 coat protein [1] [nM] | apparent KD of MS2 coat protein [2] [nM] | apparent KD of MS2 coat protein [3] [nM] | apparent KD of MS2 coat protein (input ligand: FMN 200 uM) [nM] | apparent KD of MS2 coat protein [4] [nM] | apparent KD of MS2 coat protein (input ligand: none) [nM]
1 | GAGAGUGAAGUACAGGAUAUGAGGAGAGGAACAUGAGGAUCACCCAUGUGAAAUAGAGAGAAGAGUCAGAAGGGUAGGGAAGAGA [JR_SS2_Sub004] (puzzle: Same State 2) | 32.8 | 31.4 | 23 | – | – | –
2 | UCGGGCGUACUUGCUGACAUGAGGAUCACCCAUGUCCUUGGGCAGGAUAUGGUUCCGUUUCGGUUCCAGAAGGUCCUGGCUGCU [salish99_SSNG3_r04_318] (Eterna round: R96, puzzle: Same State NG 3) | – | – | – | 18.1 | 24.4 | 25.5
3 | AUGCCAAAUCGAGGAUAUGGAGCCUUAUUGGCUCCAGAAGGUGAGACAUGAGGAUCACCCAUGUGGCAGUGGUCUAAUGACCAC [Fiskers NG1ss - 32] (Eterna round: R96, puzzle: Same State NG 1) | – | – | – | 174 | 270 | 581
4 | GUGCGAGUGCCACAGGAUAUACGUGGAUCGACAUGAGGAUCACCCAUGUAUAUCCUAAUAAUUGCGUAGAAGGGUGGUCAGUCGG [Inzage] (puzzle: Same State 2) | 136 | 74.8 | 105 | – | – | –
5 | GCCAACUCAUGAGGAUAUGGCACCUUAUUGGUGCCAGAAGGCAUGUCUAUUGACAUGAGGAUCACCCAUGUAUUAUAGUUGGCA [Fiskers NG1ss - 23] (Eterna round: R96, puzzle: Same State NG 1) | – | – | – | 83.9 | 192 | 859
6 | UGGUAACAUGAGGAUCACCCAUGUCAAAUGAAUCGAGGAUAUGGGAAAGGAGAAGAGAAACCAGAAGGCGAAGUUG [Altered State 1-13 - Jieux - Same State 1] (puzzle: Same State 1) | 50.7 | 54.1 | 51.9 | – | – | –
7 | AUUAUUAAUGCAGGAUAUGAUUAACAUGAGGAUCACCCAUGUGGUGUUGUGAGUAAGGAGAGUGAUCAGAAGGGCAUUUUUUUG [JMF's solution 19] (Eterna round: R96, puzzle: Same State NG 2) | – | – | – | 420 | 423 | 452
8 | UCUUGGUUUUUGCUCGUUUUUUGUGUUGAACAUGAGGAUCACCCAUGUAUUGUACAGUCCGAUUUAAUAAUGGUCCG [JMF 57] (puzzle: Sensor for hsa-mir-208a) | 31.5 | 26 | 33.8 | – | – | –
9 | UCAGUCAUGUAAGGAUAUGCAGCCGAAACGGCUGCAGAAGGUACUAUAAUUACAUGAGGAUCACCCAUGUUAUAAAAUAAAUAU [Mat - Same State NG 1 - JL mod - D65] (Eterna round: R96, puzzle: Same State NG 1) | – | – | – | 18.4 | 36 | 76.6
10 | UUAAGCCGCGGGCAGGAUAUGUAUUAAAAUACAUGAGGAUCACCCAUGUGCAGGUGUAACACCUGACAGAAGGGCCAAUCGCGGC [Soteed - 5] (puzzle: Same State 2) | 21.2 | 116 | 229 | – | – | –
11 | CAGCGCUGUCGAGAGGAUAUGCUGUGAUGGACAUGAGGAUCACCCAUGUUAGCGAUAGCAUUACUGUAGAAGGCUCUACAGCUGC [Soteed - 15] (puzzle: Same State 2) | – | 10.9 | – | – | – | –
12 | GGUCGGACUCACAUGAGGAUCACCCAUGUUGGCGAAAGCCGGCAGGAUAUCUGUCCGAAAAGGUCAGAGAAGGGUCAACCGACC [Fiskers NG3ss - 59] (Eterna round: R96, puzzle: Same State NG 3) | – | – | – | 322 | 82.4 | 267
13 | CUGUGUUGCGGGCAGGAUAUGUACUUGAGUACAUGAGGAUCACCCAUGUGCGGGUGUUUCACCCGACAGAAGGGCCUAUCGCGAC [JL-ss2-3.24 ViennaUCT mod] (puzzle: Same State 2) | 140 | 395 | 329 | – | – | –
14 | AGCUUCAAACUUUGCUCGUCGCGCCAGCGACAUGAGGAUCACCCAUGUGGGCGCAACCUCGUUAGCCCGAGGGCUCG [Labire] (puzzle: Sensor for hsa-mir-208a) | 27.1 | 14 | 29 | – | – | –
15 | GCUAGAAAUAAUGCCAACAUGAGGAUCACCCAUGUAUGUUGGCAGGAUAUCGUUUGCUUUGCAAACGAGAAGGGCUAAACUAGC [Mat - Same State NG 3 - JL Mod - D7] (Eterna round: R96, puzzle: Same State NG 3) | – | – | – | 280 | 296 | 280
16 | AGUCCAGAAUAAACUGGACAAAGACAUGUACAUGAGGAUCACCCAUGUCAUGUACAAGUUUUUUGCUCGUCUUAUAA (puzzle: Sensor for hsa-mir-208a) | 39.9 | 10.4 | 37.2 | – | – | –
17 | GUGGUCAGACAUGAGGAUCACCCAUGUGGAAUAAAUAACAGACAGGAUAUCAAAUAUAGGAUAUAUGAGAAGGGUCGAUUGGUG (Eterna round: R96, puzzle: Same State NG 3) | – | – | – | – | 81 | –
18 | AUAGUUUCCGAAGGAUAUGAUGAGGAUCACCCAUCAGAAGGUUGGCUAUUGGGCUGACAUGAGGAUCACCCAUGUUCUGGAGUU (Eterna round: R96, puzzle: Same State NG 1) | – | – | – | 39.8 | 39.5 | 64.5
19 | GUUAAACAUGAGGAUCACCCAUGUAAUAAUAUGGGAGGAUAUGGGAAUUAAUUAAUUAAACCAGAAGGCCUAAUUG [Mat - Same State 1 - D84] (puzzle: Same State 1) | 25.3 | 142 | 189 | – | – | –
20 | UCUUGGUUUUUGCUCGUUUUUUGUGUUGAACAUGAGGAUCACCCAUGUAUUGUACGGUCCGAUUUAGUGGUAGUCCG [JMF 72] (puzzle: Sensor for hsa-mir-208a) | 34.7 | 23.5 | 36 | – | – | –
21 | GCAUCACAUGAGGAUCACCCAUGUCUUCGGAGCCGAGGAUAUGGUCACUGUAAACAGUGGCCAGAAGGCGGGAUGC [SS1 - Son of Teenbexe v1] (puzzle: Same State 1) | 30.2 | 41.5 | 61.3 | – | – | –
22 | AGUCCAGCCUGAGCUGGACAAAAGCAUGUACAUGAGGAUCACCCAUGUUCGUGUACAAGCUUUUUGCUCGUCUUAAA [Zipper 52 - 5] (puzzle: Sensor for hsa-mir-208a) | 518 | 13.5 | 725 | – | – | –
23 | UAGUGUUUGCGAGGAUAUCGUUUGUUGAAGUUACGAGAAGGCGCUCUAAUUACAUGAGGAUCACCCAUGUCUGUGAUGCAUGAU [JR_SSNG1_Sub070] (Eterna round: R96, puzzle: Same State NG 1) | – | – | – | 65.2 | 56.3 | 70
24 | GGAGCCAAGGCAGGAUAUUCAUAUUAAAUAACAUGAGGAUCACCCAUGUUGGCCAGAAGGCCAUGGGAGAAGGGCCAUGGCUCG [Xeonanis - 13 mod22] (Eterna round: R96, puzzle: Same State NG 2) | – | – | – | 18.8 | 53.1 | 87.2
25 | GAGAGAGGGUGAGGAUAUUUAGUGAUAAUGAUAGGAGAAGGCACAGACAUGAGGAUCACCCAUGUGGGAAUAAUCCAGAGAGAG [Parity 9 - Jieux - Same State NG 1] (Eterna round: R96, puzzle: Same State NG 1) | – | – | – | 199 | 31.9 | 186
26 | UUGCUCGUGUGAGGAUAUGCCGCCGUUUCGGCUGCAGAAGGUACUAUAAUACAUGAGGAUCACCCAUGUCUCUGUUGUUUCGUG [salish99_SSNG1_r04_932] (Eterna round: R96, puzzle: Same State NG 1) | – | – | – | – | 23.7 | –
27 | AGCGAAAUAAGCAAGGAUAUGUAAUUUGGCACAUGAGGAUCACCCAUGUCAAUCCAUUUUUUUGAACAGAAGGUGCAUUUUUUUU [ak second] (puzzle: Same State 2) | 48.6 | 53.5 | 45.4 | – | – | –
28 | UGUUGUAUUACAGGAUAUCUGUUAUUUUUAUUUAGAGAAGGGUAUUCACAUGAGGAUCACCCAUGUAUAUACGAGGAAGUUGUG [JMF's solution 7] (Eterna round: R96, puzzle: Same State NG 1) | – | – | – | – | 40.8 | –
29 | AAGAGGUCCGCAGGAUAUACCCGGCCUCGCCGGGUAGAAGGGUGAACCUCAUAACCCACCACACACAUGAGGAUCACCCAUGUA [Enisaon] (Eterna round: R96, puzzle: Same State NG 1) | – | – | – | 494 | 1.93 | 111
